Measurements taken from patent publication US20240124553A1.

How the values were obtained:
Assay in all cases: flow cytometry, transfected 293T cells
[1] = molecular target: CHIKV E2-E1 envelope glycoproteins (strain S27), E2 mutant F129A (chikungunya virus strain S27) (UniProt Q8JUX5)
[2] = molecular target: CHIKV E2-E1 envelope glycoproteins (strain S27), E2 mutant I37A (chikungunya virus strain S27) (UniProt Q8JUX5)
[3] = molecular target: CHIKV E2-E1 envelope glycoproteins (strain S27), E2 mutant P128A (chikungunya virus strain S27) (UniProt Q8JUX5)
[4] = molecular target: CHIKV E2-6K-E1 envelope proteins (strain S27) with E2 Q184A (Chikungunya virus strain S27) (UniProt Q8JUX5)
[5] = molecular target: CHIKV E2-6K-E1 envelope proteins (strain S27) with E2 N218A (Chikungunya virus strain S27) (UniProt Q8JUX5)
[6] = molecular target: CHIKV E2-6K-E1 envelope proteins (strain S27) with E2 G205A (Chikungunya virus strain S27) (UniProt Q8JUX5)
[7] = molecular target: CHIKV E2-6K-E1 envelope proteins (strain S27) with E2 L180A (Chikungunya virus strain S27) (UniProt Q8JUX5)
[8] = molecular target: CHIKV E2-6K-E1 envelope proteins (strain S27) with E2 C203A (Chikungunya virus strain S27) (UniProt Q8JUX5)
[9] = molecular target: CHIKV E2-6K-E1 envelope proteins (strain S27) with E2 C220A (Chikungunya virus strain S27) (UniProt Q8JUX5)
[10] = molecular target: CHIKV E2-6K-E1 envelope proteins (strain S27) with E2 Q183A (Chikungunya virus strain S27) (UniProt Q8JUX5)
[11] = molecular target: CHIKV E2-6K-E1 envelope proteins (strain S27) with E2 R198A (Chikungunya virus strain S27) (UniProt Q8JUX5)
[12] = molecular target: CHIKV E2-6K-E1 envelope proteins (strain S27) with E2 V192A (Chikungunya virus strain S27) (UniProt Q8JUX5)
[13] = molecular target: CHIKV E2-6K-E1 envelope proteins (strain S27) with E2 G204A (Chikungunya virus strain S27) (UniProt Q8JUX5)
[14] = molecular target: CHIKV E2-6K-E1 envelope proteins (strain S27) with E2 K215A (Chikungunya virus strain S27) (UniProt Q8JUX5)
[15] = molecular target: CHIKV E2-6K-E1 envelope proteins (strain S27) with E2 I190A (Chikungunya virus strain S27) (UniProt Q8JUX5)
[16] = molecular target: CHIKV E2-6K-E1 envelope proteins (strain S27) with E2 V197A (Chikungunya virus strain S27) (UniProt Q8JUX5)
[17] = molecular target: CHIKV E2-6K-E1 envelope proteins (strain S27) with E2 S194A (Chikungunya virus strain S27) (UniProt Q8JUX5)
[18] = molecular target: CHIKV E2-6K-E1 envelope proteins (strain S27) with E2 T212A (Chikungunya virus strain S27) (UniProt Q8JUX5)
[19] = molecular target: CHIKV E2-6K-E1 envelope proteins (strain S27) with E2 N187A (Chikungunya virus strain S27) (UniProt Q8JUX5)
[20] = molecular target: CHIKV E2-6K-E1 envelope proteins (strain S27) with E2 I211A (Chikungunya virus strain S27) (UniProt Q8JUX5)
[21] = molecular target: CHIKV E2-6K-E1 envelope proteins (strain S27) with E2 Y199A (Chikungunya virus strain S27) (UniProt Q8JUX5)
[22] = molecular target: CHIKV E2-6K-E1 envelope proteins (strain S27) with E2 L181A (Chikungunya virus strain S27) (UniProt Q8JUX5)
[23] = molecular target: CHIKV E2-6K-E1 envelope proteins (strain S27) with E2 T196A (Chikungunya virus strain S27) (UniProt Q8JUX5)
[24] = molecular target: CHIKV E2-6K-E1 envelope proteins (strain S27) with E2 S185A (Chikungunya virus strain S27) (UniProt Q8JUX5)
[25] = molecular target: CHIKV E2-6K-E1 envelope proteins (strain S27) with E2 T191A (Chikungunya virus strain S27) (UniProt Q8JUX5)
[26] = molecular target: CHIKV E2-6K-E1 envelope proteins (strain S27) with E2 V216A (Chikungunya virus strain S27) (UniProt Q8JUX5)
[27] = molecular target: CHIKV E2-6K-E1 envelope proteins (strain S27) with E2 L210A (Chikungunya virus strain S27) (UniProt Q8JUX5)
[28] = molecular target: CHIKV E2-6K-E1 envelope proteins (strain S27) with E2 S206A (Chikungunya virus strain S27) (UniProt Q8JUX5)
[29] = molecular target: CHIKV E2-6K-E1 envelope proteins (strain S27) with E2 G186A (Chikungunya virus strain S27) (UniProt Q8JUX5)
[30] = molecular target: CHIKV E2-6K-E1 envelope proteins (strain S27) with E2 N193A (Chikungunya virus strain S27) (UniProt Q8JUX5)
[31] = molecular target: CHIKV E2-6K-E1 envelope proteins (strain S27) with E2 V188A (Chikungunya virus strain S27) (UniProt Q8JUX5)
[32] = molecular target: CHIKV E2-6K-E1 envelope proteins (strain S27) with E2 C201A (Chikungunya virus strain S27) (UniProt Q8JUX5)

CHIKV mAb C9 (antibody)
Binding Reactivity (% WT) [1]: 6.7 % WT
Binding Reactivity (% WT) [2]: 30.4 % WT
Binding Reactivity (% WT) [3]: 112 % WT

CHIKV mAb CHKV-88 (antibody)
Binding Reactivity (% WT) [1]: 25.1 % WT
Binding Reactivity (% WT) [2]: 63.2 % WT
Binding Reactivity (% WT) [3]: 102 % WT

CHIKV mAb IM-CKV063 (antibody)
Binding Reactivity (% WT) [1]: 3.9 % WT
Binding Reactivity (% WT) [2]: 26 % WT
Binding Reactivity (% WT) [3]: 86 % WT

CHIKV mAb IM-CKV065 (antibody)
Binding Reactivity (% WT) [1]: -1.1 % WT
Binding Reactivity (% WT) [2]: 12.1 % WT
Binding Reactivity (% WT) [3]: 80.3 % WT

Mxra8-Fc (mouse Mxra8 extracellular domain fused to mouse IgG2b Fc) (Fc fusion)
Binding Reactivity (% WT) [4]: 130 % WT
Binding Reactivity (% WT) [5]: 56.5 % WT
Binding Reactivity (% WT) [6]: 78.9 % WT
Binding Reactivity (% WT) [7]: 57 % WT
Binding Reactivity (% WT) [8]: 10.4 % WT
Binding Reactivity (% WT) [9]: 60.2 % WT
Binding Reactivity (% WT) [10]: 96.1 % WT
Binding Reactivity (% WT) [11]: 74 % WT
Binding Reactivity (% WT) [12]: 56.9 % WT
Binding Reactivity (% WT) [13]: 76.7 % WT
Binding Reactivity (% WT) [1]: 4.1 % WT
Binding Reactivity (% WT) [14]: 106 % WT
Binding Reactivity (% WT) [15]: 9.4 % WT
Binding Reactivity (% WT) [2]: 36.2 % WT
Binding Reactivity (% WT) [16]: 33.9 % WT
Binding Reactivity (% WT) [17]: 87 % WT
Binding Reactivity (% WT) [18]: 94.6 % WT
Binding Reactivity (% WT) [19]: 90.5 % WT
Binding Reactivity (% WT) [3]: 122 % WT
Binding Reactivity (% WT) [20]: 81.1 % WT
Binding Reactivity (% WT) [21]: 15.9 % WT
Binding Reactivity (% WT) [22]: 53.2 % WT
Binding Reactivity (% WT) [23]: 86.6 % WT
Binding Reactivity (% WT) [24]: 88.1 % WT
Binding Reactivity (% WT) [25]: 87.4 % WT
Binding Reactivity (% WT) [26]: 82.9 % WT
Binding Reactivity (% WT) [27]: 70.1 % WT
Binding Reactivity (% WT) [28]: 52.2 % WT
Binding Reactivity (% WT) [29]: 108 % WT
Binding Reactivity (% WT) [30]: 120 % WT
Binding Reactivity (% WT) [31]: 55.2 % WT
Binding Reactivity (% WT) [32]: 9.6 % WT
